Measurements from the supplement of paper PMC9170038.

Tested on: MS2 coat protein
Experiment: apparent KD of MS2 coat protein; higher = weaker reporter binding
Settings: Eterna round: R107
Summary of the method: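 Normalised binding curves from single clusters were fitted, and the median fit for each design is given as apparent KD. The clusters held designed RNA switches transcribed on-chip from Illumina sequencing clusters. These were titrated with SNAP-549-labelled MS2 coat protein (twofold steps from 0.7 or 1.5 nM to 3 µM, 0.8–1.5 h to 10–20 min per step) in 100 mM Tris-HCl pH 7.5, 80 mM KCl, 4 mM MgCl2, without or with constant ligand.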

[1] = input ligand: theophylline 20 uM
[2] = input ligand: theophylline 2 mM
[3] = input ligand: tryptophan 2.4 mM

| Sequence | apparent KD of MS2 coat protein (input ligand: arginine 13.2 mM) [µM] | apparent KD of MS2 coat protein (input ligand: none) [µM] | apparent KD of MS2 coat protein [1] [µM] | apparent KD of MS2 coat protein [2] [µM] | apparent KD of MS2 coat protein [3] [µM] |
| --- | --- | --- | --- | --- | --- |
| AUACAUGAGGAUCACCCAUGUCAUUCAGAAGGAGCGUCAUUUUAGACAGGUAGGUCGCUGAUAGUAUUUUUAUACUUUAUGUUUA [JR_SSArginiA_Sub015] | 0.0195 | 0.0203 | 0.0293 | 0.0233 | 0.0216 |
| AUAUAUACAUGAGGAUCACCCAUGUUAUUUCGAGGACCGGUACGGCCGCCACUCGAUAGAGUAGAAGUAAAUUUUAAUUCAUGUA [JR_SSTryptoA_Sub008] | 0.0139 | – | 0.0187 | 0.0168 | – |
| AUAUAUAUAUAGAAAUAUAUAUAUAUGUAACGAGGACCGGUACGGCCGCCACUCGUGCCGGUGAUAACAUGAGGAUCACCCAUGU [Ex_TrypA - Every engine approves!] | 0.0198 | 0.016 | 0.0209 | 0.0203 | 0.02 |
| AUAUCUUCCACGGCCGCCACUGAAUGGUGCCCAAGGUCGAUCGCAGACAUGAGGAUCACCCAUGUCAGGACCGGGUGGUACUACG [theeternabot_exclusion_MS2_Trp_B_23] | 0.0161 | – | 0.0165 | 0.0157 | – |
| AUAUGAUCAUACGAUACCAGAAAUGGUAUUCCUUUAUUUCUUACAUGAGGAUCACCCAUGUUCCCUUGGCAGCGUAUGAUCAUAU [ETHB #3] | 0.125 | – | 0.327 | – | 0.303 |
| AUAUUAGACCUGGAUACCAGCGACAUGAGGAUCACCCAUGUAUGUGCAUCUGCCAUGAUAUGCCCUUGGCAGCCACCGAGGUCGU [CZZMULLIN] | 0.0124 | – | 0.016 | – | 0.0108 |
| AUCCACAGCCGAAGGAGCGCAGUAGGAUGACAUGAGGAUCACCCAUGUGUGUGAUGUGGAUUGCAGGUAGGUCGCGGAGUGGAUU [Exclusion - Arginine B (Freestyle 9)] | 0.165 | 0.0545 | 0.082 | 0.0601 | 0.0464 |
| AUGACUUACGGGCGCCAUUUGUAAUAGGAAGGAGCGGCGAGAUAGCCAGGUAGGUCGCCUAUACAUGAGGAUCACCCAUGUCACC [Vegeorbe] | 0.0668 | 0.12 | 0.103 | 0.0818 | 0.112 |
| AUGCACCUCGUCCAGGCAAUCUUUAGUGAUACCAGCUAACUCCUUGGCCCUUGGCAGCACAUGAGGAUCACCCAUGUGCGACAUC [Tidile] | 0.0111 | – | 0.0149 | – | 0.0139 |
| AUGCAUAGCACGGCCGCCACUCCAUGUAAACAUGAGGAUCACCCAUGUAAUUUGGAUGUUUUAUAGAGGACCGGGUGAAAUGCAA [JR_ExcTryptoB_Sub004] | 0.00842 | – | 0.0101 | 0.0103 | – |
| AUGCAUAGCGGAAGGAGCGCAAUAGAAUGACAUGAGGAUCACCCAUGUGUGUGAUGUGGGUUGCAGGUAGGUCGCCGAGUGGCAU [#11 Exclusion - Arginine B] | 0.0776 | 0.0809 | 0.0959 | 0.127 | 0.0591 |
| AUGCCUAGUGGAAGGAGCGAGGGUCUUCUCAACAUGAGGAUCACCCAUGUUCUUUUAUACCCUCAGGUAGGUCGCCAUUGGGACA [Anenre] | 0.0277 | 0.0288 | 0.0336 | 0.0257 | 0.0348 |
| AUGGAGACCUCGGCCGCCACUCUCCAUGAGGAUCUCCCAUGUAACAUGAGGAUCACCCAUGUGCUGAGGACCGGGAGGUCCUGAA [Same State Tryptophan B GF 18] | 0.0092 | – | 0.0158 | 0.0125 | – |
| AUUAAUUUAUUUCUCAAUUUAAUUUCAGAAGGAGCGUGAUGUUUCACAGGUAGGUCGCUGUUUACAUGAGGAUCACCCAUGUUUU [JR_SSArginiA_Sub004] | 0.032 | 0.0402 | 0.0444 | 0.0404 | 0.0318 |
| AUUACAUGAGCAUCAGCACAUGAGGAUCACCGAGGACCGGUACGGCCGCCACUCGACACAUGAGGAUCACCCAUGUGUUGUUGUU [Exclusion Tryptophan A 3] | 0.0246 | – | 0.345 | 0.281 | – |
| AUUACAUGGAUUACAACUAAAUCAACUGAAGGAGCGUGAAGGAUCACAGGUAGGUCGCAGUACAUGAGGAUCACCCAUGUUAUAA [JR_Nu_SSArginiA_Sub021] | 0.0344 | 0.034 | 0.0485 | 0.0459 | 0.0396 |
| AUUAUCGUAGGUUAAAGUUUAGAAACUGAAGGAGCGUGGUAUUACACAGGUAGGUCGCAGAUUUUACAUGAGGAUCACCCAUGUU [JR_ExcArginiA_Sub010] | 0.0213 | 0.0224 | 0.0263 | 0.0251 | 0.0215 |
| AUUGUCAAGUCGGCCGCCACUUCUGCCAUGGCCACCAGUCGACAUGAGGAUCACCCAUGUCUCUUAAGGACCGGGACUUUCAAUU [theeternabot_sameState_MS2_Trp_B_6] | 0.0131 | – | 0.016 | 0.0139 | – |
| AUUUUCAUGGUCAUAUAUAUAUCUUCAGAUACCAGACUAUAUUAAGUCCCUUGGCAGCUGUUACAUGAGGAUCACCCAUGUUAUA [JR_ExcTheophyA_Sub013] | 0.0401 | – | 0.0653 | – | 0.078 |
| CAAGCACCAACCGAUACCAGCUUAGUAGUAUGCUCAUUAAACAUGAGGAUCACCCAUGUGAGCCCUUGGCAGCGGAUUUCCCUGC [theeternabot_exclusion_MS2_Theo_B_12] | 0.0145 | – | 0.0183 | – | 0.0135 |
| CACUACAUGAGGAUCACCCAUGUCUUCCGACGAGGACCGGUACGGCCGCCACUCGAACCUCCAACUAAUACCUCAACCGUCUGAU [theeternabot_sameState_MS2_Trp_A_25] | 0.0365 | – | 0.11 | 0.101 | – |
| CAGAGACAUGAGGAUCACCCAUGUUGAGAUACCAGCUUGGUAUCGAGCCCUUGGCAGCUCGCCCAUCGUCUAUAUCAGCCUGAGC [theeternabot_sameState_MS2_Theo_A_40] | 0.017 | – | 0.0189 | – | 0.0168 |
| CAGGUGGACUGAAGGAGCGAGUCAGGGACUUACAUGAGGAUCACCCAUGUCACGGUCGUCACUCAGGUAGGUCGCAGUUCGCCUC [Diinan] | 0.113 | 0.188 | 0.279 | 0.628 | 0.231 |
| CAGUCAGUCAGUCAAUGAGUGAGGCAUGAAGGAGCGUGGGAAACCACAGGUAGGUCGCAUGCGGAACAUGAGGAUCACCCAUGUU [SSArg A #4] | 0.0319 | 0.0272 | 0.0262 | 0.0268 | 0.0277 |
| CAGUCUCUAGCGGCCGCCACUGUUCUGCUGGUGCUGCUGAACGAACAUGAGGAUCACCCAUGUCUCAGGACCGGGCUUCAGACUC [theeternabot_sameState_MS2_Trp_B_44] | 0.0224 | – | 0.0304 | 0.0333 | – |
| CAUACUUUAGUAUGUUAUGUGGACAGUGAUACCAGAUACGAAAGUAUCCCUUGGCAGCACAACAUGAGGAUCACCCAUGUAUUUU [Theophylline A 4] | 0.0258 | – | 0.0222 | – | 0.0215 |
| CAUGAAGUAACUGAUACCAGUGUACACAUGAGGAUCACCCAUGUGUUGGGUUUUGUUGUACACCCUUGGCAGCAGAAUCUUUAUG [AstrosExyTheB#8] | 0.0424 | – | 0.0843 | – | 0.0512 |
| CAUGAUAAGUUGGAUACCAGCAUAUGGAACAACAUGAGGAUCACCCAUGUCAAAUGACAUUGCCCUUGGCAGCCACCUACUGUCA [theeternabot_sameState_MS2_Theo_B_5] | 0.0212 | – | 0.0191 | – | 0.0179 |
